Measurements taken from patent US7326418B2, “Identification of novel factors that block programmed cell death or apoptosis by targeting JNK” (University of Chicago, priority 2001, dated 2008).

B1: GST-Gadd45β: full-length murine Gadd45β directly fused to GST, purified from E. coli (protein)
chain: MTLEELVASDNAVQKMQAVTAAVEQLLVAAQRQDRLTVGVYEAAKLMNVDPDSVVLCLLAIDEEEEDDIALQIHFTLIQSFCCDNDIDIVRVSGMQRLAQLLGEPAETLGTTEARDLHCLLVTNCHTDSWKSQGLVEVASYCEESRGNNQWVPYISLEER
modifications: left off: a dimerising Fc or GST
notes: full-length murine Gadd45β directly fused to GST, purified from E. coli
B2: Gadd45β: purified recombinant His6-tagged Gadd45β protein; also used generically for the recombinant Gadd45β proteins (protein, UniProt O75293 1-160, looked up)
Growth arrest and DNA …: MTLEELVACDNAAQKMQTVTAAVEELLVAAQRQDRLTVGVYESAKLMNVDPDSVVLCLLAIDEEEEDDIALQIHFTLIQSFCCDNDINIVRVSGMQRLAQLLGEPAETQGTTEARDLHCLLVTNPHTDAWKSHGLVEVASYCEESRGNNQWVPYISLQER
modifications: His6 tag
notes: purified recombinant His6-tagged Gadd45β protein; also used generically for the recombinant Gadd45β proteins
B3: His6-Gadd45β: human full-length Gadd45β purified from E. coli as His6-tagged protein (protein, UniProt O75293 1-160, looked up)
chain: B2 Growth arrest and DNA …
modifications: full-length His6 tag
notes: human full-length Gadd45β purified from E. coli as His6-tagged protein

Biological target: T1, ASK1 (Homo sapiens, UniProt Q99683)
T1 sequence (Q99683 1-1374): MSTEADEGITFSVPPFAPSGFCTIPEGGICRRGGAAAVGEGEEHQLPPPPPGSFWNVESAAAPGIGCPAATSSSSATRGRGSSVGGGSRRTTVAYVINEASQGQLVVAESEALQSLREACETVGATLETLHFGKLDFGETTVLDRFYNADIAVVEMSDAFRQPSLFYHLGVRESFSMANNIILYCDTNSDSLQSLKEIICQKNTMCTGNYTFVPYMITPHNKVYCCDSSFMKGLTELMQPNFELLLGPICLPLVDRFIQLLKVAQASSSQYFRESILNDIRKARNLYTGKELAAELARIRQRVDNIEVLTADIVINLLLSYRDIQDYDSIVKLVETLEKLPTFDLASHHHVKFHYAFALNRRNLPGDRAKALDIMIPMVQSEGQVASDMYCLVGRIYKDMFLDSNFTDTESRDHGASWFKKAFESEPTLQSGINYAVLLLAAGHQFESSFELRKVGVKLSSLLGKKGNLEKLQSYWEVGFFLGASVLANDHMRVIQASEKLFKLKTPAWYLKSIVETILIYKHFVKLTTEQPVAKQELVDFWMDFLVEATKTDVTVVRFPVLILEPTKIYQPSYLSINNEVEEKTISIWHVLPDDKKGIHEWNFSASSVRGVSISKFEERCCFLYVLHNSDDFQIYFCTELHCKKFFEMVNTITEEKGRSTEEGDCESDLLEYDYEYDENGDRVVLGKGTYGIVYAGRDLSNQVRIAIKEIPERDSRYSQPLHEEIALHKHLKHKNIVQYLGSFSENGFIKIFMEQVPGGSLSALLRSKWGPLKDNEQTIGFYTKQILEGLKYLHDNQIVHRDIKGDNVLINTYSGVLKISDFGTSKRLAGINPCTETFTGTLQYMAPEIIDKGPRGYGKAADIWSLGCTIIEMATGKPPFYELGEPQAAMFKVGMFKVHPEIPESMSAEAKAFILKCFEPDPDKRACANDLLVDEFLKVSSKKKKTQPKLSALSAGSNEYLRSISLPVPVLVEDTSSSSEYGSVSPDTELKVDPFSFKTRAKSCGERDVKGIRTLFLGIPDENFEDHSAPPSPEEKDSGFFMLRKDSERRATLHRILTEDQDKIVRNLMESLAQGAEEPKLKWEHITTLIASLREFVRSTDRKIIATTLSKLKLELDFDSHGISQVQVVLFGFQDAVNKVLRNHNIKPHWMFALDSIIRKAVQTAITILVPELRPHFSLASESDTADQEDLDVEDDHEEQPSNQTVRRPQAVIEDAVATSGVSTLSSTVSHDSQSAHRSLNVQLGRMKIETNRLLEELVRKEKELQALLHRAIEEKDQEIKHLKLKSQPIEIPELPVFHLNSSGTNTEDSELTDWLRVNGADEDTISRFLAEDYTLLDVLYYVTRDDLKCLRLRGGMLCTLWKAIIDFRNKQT
Assay: Kinase assay of immunoprecipitated FLAG-ASK1 with recombinant Gadd45β proteins
Assay type: biochemical
Parameters: expressed in transfected cells; host or cells: HEK-293; anti-FLAG immunoprecipitate
Details: in vitro, even at high concentrations
Description: Next, the functional consequences, in vitro, of the physical interactions of Gadd45β with kinases in the JNK pathway were assessed. Murine and human, full-length Gadd45J3 proteins were purified from E. coli as GST-Gadd45β and His6-tagged Gadd45β (His6 disclosed as SEQ ID NO: 46), respectively, according to standard procedures. Prior to employing these proteins in in vitro assays, purity of all recombinant polypeptides was assured by >98%, by performing Coomassie blue staining of SDS polyacrylamide gels. Then, the ability of these proteins, as well as of control GST and His6-EF3 (His6 disclosed as SEQ ID NO: 46)proteins, to inhibit kinases in the JNK pathways was monitored in vitro. FLAG-tagged JNKK2, JNKK1, MKK3, and ASK1 were immunoprecipitated from transiently transfected 293 cells using anti-FLAG antibodies and pre-incubated for 10 minutes with increasing concentrations of recombinant proteins, prior to the addition of specific kinase substrates (i.e. GST-JNK1 with JNKK1 and JNKK2; GST-p38[…] with MKK3; GST-JNNK1 or GST-JNKK2 with ASK1). […] These findings indicate that, upon binding to Gadd45β, JNKK2 is effectively inactivated.
A question was whether Gadd45β inhibited active MKK7, in vitro. FLAG-MKK7 was immunoprecipitated from TNFα-treated or untreated 293 cells, and kinase assays were performed in the presence of purified His6-Gadd45β (His6 disclosed as SEQ ID NO: 46), GST-Gadd45β, or control proteins (FIG. 28d; see also FIG. 28g). […] Consistent with the in vivo findings (FIG. 27), the inhibitory activity of Gadd45β was specific. […] Indeed, the effects of Gadd45β on MKK7 phosphorylation by TNFα may be due inhibition of the MKK7 ability to auto-phoshorylate and/or to serve as substrate for upstream kinases. Altogether, the findings identify MKK7 as a target of Gadd45β, and of NF-[…]B, in the JNK cascade. Of interest, MKK7 is a selective activator of JNK, and its ablation abolishes JNK activation by TNFα. Thus, blockade of MKK7 is sufficient on its own to explain the effects of Gadd45β on JNK signaling—i.e. its specific and near-complete suppression of this signaling. […]

Molecule	effect on ASK1 kinase activity
B1	neither GST-Gadd45β nor His6-Gadd45β (His6 disclosed as SEQ ID NO: 46) had significant effects
B2	did not hamper
B3	neither GST-Gadd45β nor His6-Gadd45β (His6 disclosed as SEQ ID NO: 46) had significant effects
